Assay results as given in PMC2275093.

Legend:
[1] = molecular target: T1, Cren7 (recombinant) (Sulfolobus solfataricus P2, UniProt Q97ZE3 1-60); assay: EMSA
T1 sequence: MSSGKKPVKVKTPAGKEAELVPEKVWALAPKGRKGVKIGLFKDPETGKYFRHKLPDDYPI

[2] = molecular target: T1, Cren7 (recombinant); assay: NMR 1H-15N HSQC titration

B1: poly(GACT)15 60 nt ssDNA (ssDNA)
DNA: GACTGACTGACTGACTGACTGACTGACTGACTGACTGACTGACTGACTGACTGACTGACT
Kd [1]: ~2.5 µM

B2: 10-bp duplex (dsDNA)
DNA 1: GCGAATTCGC
DNA 2: GCGAATTCGC
binding result [2]: binds
